Patent US4770996A, “Identification of individuals predisposed toward alcohol abuse” (priority 1986, dated 1988)

Substrate: NCCc1ccccc1
Test: Platelet monoamine oxidase (MAO) assay, deamination of 14C-PEA
Assay type: biochemical, human
Settings: other: platelets of control subjects; varying PEA; mean±SEM, n=6; 37.0 °C
Procedure: Platelets were prepared from whole blood (20 ml) which was obtained by venipuncture from healthy volunteers and alcoholic subjects. After standing at room temperature for approximately three to four hours in citrate-phosphate-dextrose solution, each blood sample was centrifuged at 180×G for two minutes. The platelet-rich plasma (PRP) was carefully removed and platelet count was determined from aliquots (20 ul) of the PRP with a Coulter S-plus Thrombocounter. The PRP was centrifuged at 16,000 g for ten minutes. The pellet was resuspended in 50 ml of cold 50 mM Tris-HCl, pH 7.5, containing […] NaCl and 20 mM ethylene diamine tetraacetic acid (EDTA). The centrifugation was repeated twice, and the final pellet was resuspended in 1 ml of cold 5 mM Tris-HCl, pH 7.5, containing 5 mM EDTA. Suspensions were rapidly frozen at -70° C., and samples were stored at -70° C. for no longer than four weeks prior to assay.
To measure the deamination of ^14 C-PEA, assay mixtures (total volume, 0.3 ml) contained approximately 15 ug of platelet protein. Reactions were carried out in 0.1 M sodium phosphate, pH 7.4, at 37° C. […] Two additional ml of water and 20 ml of scintillation fluid were added to each vial, and radioactivity was determined in a liquid scintillation spectrometer. […]

B1: platelet monoamine oxidase (MAO) (Homo sapiens) (protein)
chain: MSNKCDVVVVGGGISGMAAAKLLHDSGLNVVVLEARDRVGGRTYTLRNQKVKYVDLGGSYVGPTQNRILRLAKELGLETYKVNEVERLIHHVKGKSYPFRGPFPPVWNPITYLDHNNFWRTMDDMGREIPSDAPWKAPLAEEWDNMTMKELLDKLCWTESAKQLATLFVNLCVTAETHEVSALWFLWYVKQCGGTTRIISTTNGGQERKFVGGSGQVSERIMDLLGDRVKLERPVIYIDQTRENVLVETLNHEMYEAKYVISAIPPTLGMKIHFNPPLPMMRNQMITRVPLGSVIKCIVYYKEPFWRKKDYCGTMIIDGEEAPVAYTLDDTKPEGNYAAIMGFILAHKARKLARLTKEERLKKLCELYAKVLGSLEALEPVHYEEKNWCEEQYSGGCYTTYFPPGILTQYGRVLRQPVDRIYFAGTETATHWSGYMEGAVEAGERAAREILHAMGKIPEDEIWQSEPESVDVPAQPITTTFLERHLPSVPGLLRLIGLTTIFSATALGFLAHKRGLLVRV
notes: contained approximately 15 ug of platelet protein; from tissue; host or cells: platelets (membranes) from whole blood of volunteers and alcoholic subjects
Q: B1 was tested. Which Km did it give?
A: The Km was 1.4 ± 0.2 µM.

Q: What about the Vmax of the same protein?
A: The Vmax was 508±37 pmole/mg protein/minute.
